Patent US20250340881A1, “PHARMACEUTICAL COMPOSITION FOR TREATING CANCER COMPRISING FOXM1 MUTANT OR FOXM1 SHRNA” (Industry-University Cooperation Foundation Hanyang …, priority 2022, published 2025)

Tests used:
THP-1 cells = assay: M1 and M2 marker mRNA in THP-1 cells co-cultured with FoxM1-expressing A549 cells; format: cell-based, human; settings: co-culture 48 h
Excerpt: In the animal tissues, it was confirmed that both PD-L1 protein expression and CD274 mRNA expression were increased in cancer cells expressing FoxM1 (FIG. 5D, 5E). […] From the results described above, we investigated whether FoxM1 phosphorylated point mutant (S25E) affects the polarization of macrophages in the tumor microenvironment. After co-culturing human monocyte THP-1 cells and the cell groups over-expressing FoxM1 point mutants, M1 and M2 markers were examined in THP-1 cells.
Next, an expression suppression system for suppressing FoxM1 expression was established to observe whether the FoxM1 phosphorylated point mutant (S25E) directly affects polarization to M2 macrophages. First, to inhibit the expression of mRNA of FoxM1, a pLKO-puro.1-hFoxM1 plasmid was produced using a pLKO-puro.1 vector to construct shRNAs targeting nucleotide sequences at 709-729 positions in the human FoxM1 mRNA sequence. The following sequences can be used as target sequences for human FoxM1 shRNA production, and oligonucleotides with the following sequences can be used as primers for shRNA production. The gene accession number for human FoxM1 mRNA in PubMed is NM_001243088.2, and it contains 3507 bp. The following primers were used for shRNA production: 5′-ccgg-[…]-ctcgag-[…]-tttttg-3′ (forward primer) and 5′-aattcaaaaa-AGCAAG AGATGGAGGAAAAGG-ctcgag-[…]-3′ (reverse primer). Then, after purifying and concentrating each lentivirus for expression of the produced FoxM1 shRNA, it was constructed by infecting a lung cancer cell line, A549 cells expressing FoxM1, with the virus. The mRNA expression of M2 markers, CD163, CD206, and VEGFA, was examined after co-culturing lung cancer cells (4×10^4 cells/ml) with suppressed FoxM1 expression and THP-1 cells (1.2×10^5 cells/ml) for 48 h. […] When co-culturing with cancer cells expressing the FoxM1 variant S25E, it was confirmed that the M2 markers CD163, CD206, and VEGFA were all increased by 2 folds or more in THP1 cells compared to the control group (Mock_shCtrl) (FIG. 6D).
After co-culturing the FoxM1 WT protein over-expressed cancer cells (4×10^4 cells/ml) and THP-1 cells (1.2×10^5 cells/ml) for 48 h, the mRNA expression of M1 markers INOS and IL12B was not altered, while the mRNA expression of all the M2 markers IL10, CD163, CD206, TGFB1, and VEGFA was increased in the FoxM1 WT (FIG. 13A). Among them, CD206, TGFB1, and VEGFA had been known as markers for M2d-tumor-associated macrophages (M2d-TAM) (JAYASINGAM, Sharmilla Devi, et al., Frontiers in Oncology (2020) 9: 1512.).

A549 lung cancer cells = assay: Cell proliferation assay of A549 cells expressing FoxM1 point mutants; format: cell-based; settings: A549 cells expressing the mutant

B1: S25E: FoxM1 phosphorylated point mutant of the S25 residue, expressed by lentivirus in A549 cells (protein, listed as Homo sapiens)
chain: MKTSPRRPLILKRRRLPLPVQNAPEETSEEEPKRSPAQQESNQAEASKEVAESNSCKFPAGIKIINHPTMPNTQVVAIPNNANIHSIITALTAKGKESGSSGPNKFILISCGGAPTQPPGLRPQTQTSYDAKRTEVTLETLGPKPAARDVNLPRPPGALCEQKRETCDGEAAGCTINNSLSNIQWLRKMSSDGLGSRSIKQEMEEKENCHLEQRQVKVEEPSRPSASWQNSVSERPPYSYMAMIQFAINSTERKRMTLKDIYTWIEDHFPYFKHIAKPGWKNSIRHNLSLHDMFVRETSANGKVSFWTIHPSANRYLTLDQVFKQQQKRPNPELRRNMTIKTELPLGARRKMKPLLPRVSSYLVPIQFPVNQSLVLQPSVKVPLPLAASLMSSELARHSKRVRIAPKVLLAEEGIAPLSSAGPGKEEKLLFGEGFSPLLPVQTIKEEEIQPGEEMPHLARPIKVESPPLEEWPSPAPSFKEESSHSWEDSSQSPTPRPKKSYSGLRSPTRCVSEMLVIQHRERRERSRSRRKQHLLPPCVDEPELLFSEGPSTSRWAAELPFPADSSDPASQLSYSQEVGGPFKTPIKETLPISSTPSKSVLPRTPESWRLTPPAKVGGLDFSPVQTSQGASDPLPDPLGLMDLSTTPLQSAPPLESPQRLLSSEPLDLISVPFGNSSPSDIDVPKPGSPEPQVSGLAANRSLTEGLVLDTMNDSLSKILLDISFPGLDEDPLGPDNINWSQFIPELQ
- M2 markers CD163, CD206 and VEGFA in THP1 cells compared to Mock_shCtrl (THP-1 cells): ≥ 2 folds
- mRNA expression of M1 markers INOS and IL12B in THP-1 cells (THP-1 cells): did not change
- mRNA expression of M2 markers IL10, CD163, Cd206, TGFB1 and VEGFA in THP-1 cells (THP-1 cells): ≥ 2 folds
- cell proliferation (A549 lung cancer cells): did not significantly increase
